Source: patent US20140162945A1 (BEIJING HANMI PHARMACEUTICAL, published 2014)
Bridges are numbered along the chain shown (N, C = ends). Where no end group is shown, it is not given here. [ ]: non-standard residue; d: D form. The star is where a group is joined. Palmitoyl = CCCCCCCCCCCCCCCC(=O)*; Aib = CC(C)(N)C(=O)O

T1: human GIP receptor (human, UniProt P48546 22-466)
T1 sequence (looked up): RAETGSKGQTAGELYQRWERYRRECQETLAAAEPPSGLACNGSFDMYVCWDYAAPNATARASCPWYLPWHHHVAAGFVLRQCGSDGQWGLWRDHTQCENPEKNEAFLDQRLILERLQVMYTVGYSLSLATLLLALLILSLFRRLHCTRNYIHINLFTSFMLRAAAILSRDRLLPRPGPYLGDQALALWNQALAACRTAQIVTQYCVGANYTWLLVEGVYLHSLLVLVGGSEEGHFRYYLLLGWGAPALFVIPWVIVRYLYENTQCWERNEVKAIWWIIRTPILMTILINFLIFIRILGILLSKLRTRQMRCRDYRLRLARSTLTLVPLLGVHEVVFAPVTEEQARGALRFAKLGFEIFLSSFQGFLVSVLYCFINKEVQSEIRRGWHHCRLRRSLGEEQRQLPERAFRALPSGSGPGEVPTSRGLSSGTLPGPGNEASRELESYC

B1: Analog 057 (peptide)
peptide: Y[Aib]EGTFTSDYSIYMEKEAVKEFIAWLVKG-NH2
modifications: N-terminus assumed
SMILES: CC[C@H](C)[C@H](NC(=O)[C@H](Cc1ccccc1)NC(=O)[C@H](CCC(=O)O)NC(=O)[C@H](CCCCN)NC(=O)[C@@H](NC(=O)[C@H](C)NC(=O)[C@H](CCC(=O)O)NC(=O)[C@H](CCCCN)NC(=O)[C@H](CCC(=O)O)NC(=O)[C@H](CCSC)NC(=O)[C@H](Cc1ccc(O)cc1)NC(=O)[C@@H](NC(=O)[C@H](CO)NC(=O)[C@H](Cc1ccc(O)cc1)NC(=O)[C@H](CC(=O)O)NC(=O)[C@H](CO)NC(=O)[C@@H](NC(=O)[C@H](Cc1ccccc1)NC(=O)[C@@H](NC(=O)CNC(=O)[C@H](CCC(=O)O)NC(=O)C(C)(C)NC(=O)[C@@H](N)Cc1ccc(O)cc1)[C@@H](C)O)[C@@H](C)O)[C@@H](C)CC)C(C)C)C(=O)N[C@@H](C)C(=O)N[C@@H](Cc1c[nH]c2ccccc12)C(=O)N[C@@H](CC(C)C)C(=O)N[C@H](C(=O)N[C@@H](CCCCN)C(=O)NCC(N)=O)C(C)C
B2: Analog 066 (peptide)
peptide: Y[Aib]EGTFTSDYSIYMEKEAVREFIAWLVKGGPSSGAPPPSK-NH2
modifications: N-terminus assumed
SMILES: CC[C@H](C)[C@H](NC(=O)[C@H](Cc1ccccc1)NC(=O)[C@H](CCC(=O)O)NC(=O)[C@H](CCCNC(=N)N)NC(=O)[C@@H](NC(=O)[C@H](C)NC(=O)[C@H](CCC(=O)O)NC(=O)[C@H](CCCCN)NC(=O)[C@H](CCC(=O)O)NC(=O)[C@H](CCSC)NC(=O)[C@H](Cc1ccc(O)cc1)NC(=O)[C@@H](NC(=O)[C@H](CO)NC(=O)[C@H](Cc1ccc(O)cc1)NC(=O)[C@H](CC(=O)O)NC(=O)[C@H](CO)NC(=O)[C@@H](NC(=O)[C@H](Cc1ccccc1)NC(=O)[C@@H](NC(=O)CNC(=O)[C@H](CCC(=O)O)NC(=O)C(C)(C)NC(=O)[C@@H](N)Cc1ccc(O)cc1)[C@@H](C)O)[C@@H](C)O)[C@@H](C)CC)C(C)C)C(=O)N[C@@H](C)C(=O)N[C@@H](Cc1c[nH]c2ccccc12)C(=O)N[C@@H](CC(C)C)C(=O)N[C@H](C(=O)N[C@@H](CCCCN)C(=O)NCC(=O)NCC(=O)N1CCC[C@H]1C(=O)N[C@@H](CO)C(=O)N[C@@H](CO)C(=O)NCC(=O)N[C@@H](C)C(=O)N1CCC[C@H]1C(=O)N1CCC[C@H]1C(=O)N1CCC[C@H]1C(=O)N[C@@H](CO)C(=O)N[C@@H](CCCCN)C(N)=O)C(C)C
B3: Analog 053-2 (peptide)
peptide: Y[Aib]EGTFTSDYSIYMEKEAVEEFIAWLVKG-NH2
modifications: lactam 16-20; N-terminus assumed
SMILES: CC[C@H](C)[C@H](NC(=O)[C@H](Cc1ccccc1)NC(=O)[C@H](CCC(=O)O)NC(=O)[C@@H]1CCC(=O)NCCCC[C@H](NC(=O)[C@H](CCC(=O)O)NC(=O)[C@H](CCSC)NC(=O)[C@H](Cc2ccc(O)cc2)NC(=O)[C@@H](NC(=O)[C@H](CO)NC(=O)[C@H](Cc2ccc(O)cc2)NC(=O)[C@H](CC(=O)O)NC(=O)[C@H](CO)NC(=O)[C@@H](NC(=O)[C@H](Cc2ccccc2)NC(=O)[C@@H](NC(=O)CNC(=O)[C@H](CCC(=O)O)NC(=O)C(C)(C)NC(=O)[C@@H](N)Cc2ccc(O)cc2)[C@@H](C)O)[C@@H](C)O)[C@@H](C)CC)C(=O)N[C@@H](CCC(=O)O)C(=O)N[C@@H](C)C(=O)N[C@@H](C(C)C)C(=O)N1)C(=O)N[C@@H](C)C(=O)N[C@@H](Cc1c[nH]c2ccccc12)C(=O)N[C@@H](CC(C)C)C(=O)N[C@H](C(=O)N[C@@H](CCCCN)C(=O)NCC(N)=O)C(C)C
B4: Analog 052-2 (peptide)
peptide: Y[Aib]EGTFTSDYSEYMEKEAVREFIAWLVKG-NH2
modifications: lactam 12-16; N-terminus assumed
SMILES: CC[C@H](C)[C@H](NC(=O)[C@H](Cc1ccccc1)NC(=O)[C@H](CCC(=O)O)NC(=O)[C@H](CCCNC(=N)N)NC(=O)[C@@H](NC(=O)[C@H](C)NC(=O)[C@H](CCC(=O)O)NC(=O)[C@@H]1CCCCNC(=O)CC[C@H](NC(=O)[C@H](CO)NC(=O)[C@H](Cc2ccc(O)cc2)NC(=O)[C@H](CC(=O)O)NC(=O)[C@H](CO)NC(=O)[C@@H](NC(=O)[C@H](Cc2ccccc2)NC(=O)[C@@H](NC(=O)CNC(=O)[C@H](CCC(=O)O)NC(=O)C(C)(C)NC(=O)[C@@H](N)Cc2ccc(O)cc2)[C@@H](C)O)[C@@H](C)O)C(=O)N[C@@H](Cc2ccc(O)cc2)C(=O)N[C@@H](CCSC)C(=O)N[C@@H](CCC(=O)O)C(=O)N1)C(C)C)C(=O)N[C@@H](C)C(=O)N[C@@H](Cc1c[nH]c2ccccc12)C(=O)N[C@@H](CC(C)C)C(=O)N[C@H](C(=O)N[C@@H](CCCCN)C(=O)NCC(N)=O)C(C)C
B5: Analog 053-1 (peptide)
peptide: Y[Aib]EGTFTSDYSIYMEKEAVEEFIAWLVKG-NH2
modifications: N-terminus assumed
SMILES: CC[C@H](C)[C@H](NC(=O)[C@H](Cc1ccccc1)NC(=O)[C@H](CCC(=O)O)NC(=O)[C@H](CCC(=O)O)NC(=O)[C@@H](NC(=O)[C@H](C)NC(=O)[C@H](CCC(=O)O)NC(=O)[C@H](CCCCN)NC(=O)[C@H](CCC(=O)O)NC(=O)[C@H](CCSC)NC(=O)[C@H](Cc1ccc(O)cc1)NC(=O)[C@@H](NC(=O)[C@H](CO)NC(=O)[C@H](Cc1ccc(O)cc1)NC(=O)[C@H](CC(=O)O)NC(=O)[C@H](CO)NC(=O)[C@@H](NC(=O)[C@H](Cc1ccccc1)NC(=O)[C@@H](NC(=O)CNC(=O)[C@H](CCC(=O)O)NC(=O)C(C)(C)NC(=O)[C@@H](N)Cc1ccc(O)cc1)[C@@H](C)O)[C@@H](C)O)[C@@H](C)CC)C(C)C)C(=O)N[C@@H](C)C(=O)N[C@@H](Cc1c[nH]c2ccccc12)C(=O)N[C@@H](CC(C)C)C(=O)N[C@H](C(=O)N[C@@H](CCCCN)C(=O)NCC(N)=O)C(C)C
B6: Analog 052-1 (peptide)
peptide: Y[Aib]EGTFTSDYSEYMEKEAVREFIAWLVKG-NH2
modifications: N-terminus assumed
SMILES: CC[C@H](C)[C@H](NC(=O)[C@H](Cc1ccccc1)NC(=O)[C@H](CCC(=O)O)NC(=O)[C@H](CCCNC(=N)N)NC(=O)[C@@H](NC(=O)[C@H](C)NC(=O)[C@H](CCC(=O)O)NC(=O)[C@H](CCCCN)NC(=O)[C@H](CCC(=O)O)NC(=O)[C@H](CCSC)NC(=O)[C@H](Cc1ccc(O)cc1)NC(=O)[C@H](CCC(=O)O)NC(=O)[C@H](CO)NC(=O)[C@H](Cc1ccc(O)cc1)NC(=O)[C@H](CC(=O)O)NC(=O)[C@H](CO)NC(=O)[C@@H](NC(=O)[C@H](Cc1ccccc1)NC(=O)[C@@H](NC(=O)CNC(=O)[C@H](CCC(=O)O)NC(=O)C(C)(C)NC(=O)[C@@H](N)Cc1ccc(O)cc1)[C@@H](C)O)[C@@H](C)O)C(C)C)C(=O)N[C@@H](C)C(=O)N[C@@H](Cc1c[nH]c2ccccc12)C(=O)N[C@@H](CC(C)C)C(=O)N[C@H](C(=O)N[C@@H](CCCCN)C(=O)NCC(N)=O)C(C)C
B7: Analog 060 (peptide)
peptide: Y[Aib]EGTFTSDYSIYMEKEAVREFIAWLVKGKKKKK-NH2
modifications: N-terminus assumed
SMILES: CC[C@H](C)[C@H](NC(=O)[C@H](Cc1ccccc1)NC(=O)[C@H](CCC(=O)O)NC(=O)[C@H](CCCNC(=N)N)NC(=O)[C@@H](NC(=O)[C@H](C)NC(=O)[C@H](CCC(=O)O)NC(=O)[C@H](CCCCN)NC(=O)[C@H](CCC(=O)O)NC(=O)[C@H](CCSC)NC(=O)[C@H](Cc1ccc(O)cc1)NC(=O)[C@@H](NC(=O)[C@H](CO)NC(=O)[C@H](Cc1ccc(O)cc1)NC(=O)[C@H](CC(=O)O)NC(=O)[C@H](CO)NC(=O)[C@@H](NC(=O)[C@H](Cc1ccccc1)NC(=O)[C@@H](NC(=O)CNC(=O)[C@H](CCC(=O)O)NC(=O)C(C)(C)NC(=O)[C@@H](N)Cc1ccc(O)cc1)[C@@H](C)O)[C@@H](C)O)[C@@H](C)CC)C(C)C)C(=O)N[C@@H](C)C(=O)N[C@@H](Cc1c[nH]c2ccccc12)C(=O)N[C@@H](CC(C)C)C(=O)N[C@H](C(=O)N[C@@H](CCCCN)C(=O)NCC(=O)N[C@@H](CCCCN)C(=O)N[C@@H](CCCCN)C(=O)N[C@@H](CCCCN)C(=O)N[C@@H](CCCCN)C(=O)N[C@@H](CCCCN)C(N)=O)C(C)C

These binders were tested against T1, human GIP receptor (assay: cell-based or functional assay).

Binder	EC50, GIP Receptor cAMP induction [nM]	Relative Potency, GIP Receptor [%]
B1	0.57	36.8
B2	0.34	50
B3	0.48	35.4
B4	0.064	147
B5	0.5	34
B6	0.57	36.8
B7	2.5	8.4

Each binder was assayed against human GLP-1 receptor (human, UniProt P43220 24-463) (assay: cell-based or functional assay).
Sequence of human GLP-1 receptor (P43220 24-463): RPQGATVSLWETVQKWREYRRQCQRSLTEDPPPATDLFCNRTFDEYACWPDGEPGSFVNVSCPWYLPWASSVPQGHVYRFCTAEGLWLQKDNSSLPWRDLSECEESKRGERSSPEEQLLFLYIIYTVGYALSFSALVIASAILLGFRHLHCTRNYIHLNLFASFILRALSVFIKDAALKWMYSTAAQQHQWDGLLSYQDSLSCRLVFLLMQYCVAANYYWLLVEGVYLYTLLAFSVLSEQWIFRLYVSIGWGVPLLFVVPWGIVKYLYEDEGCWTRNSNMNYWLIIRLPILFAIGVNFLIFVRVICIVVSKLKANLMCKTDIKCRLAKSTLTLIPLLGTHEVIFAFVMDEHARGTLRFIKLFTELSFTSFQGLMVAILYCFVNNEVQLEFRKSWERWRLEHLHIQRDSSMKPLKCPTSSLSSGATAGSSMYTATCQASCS

Binder	EC50, GLP-1 Receptor cAMP induction [nM]	Relative Potency, GLP-1 Receptor [%]
B1	4.23	–
B2	2.5	43.7
B3	2.96	37
Y[Aib]EGTFTSDYSIYMEKEAVREFIAWLVK(Palmitoyl)G-NH2 [Analog 046]	6.52	–
B4	0.824	133
B5	12.7	–
B6	2.5	–
B7	2.97	36.8
